Test in all cases: SPR, KD relative to WT C2;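 further: biacore SPR at 37 °C, anti-C2 mAbs captured via immobilised goat anti-human IgG, C2 alanine or serine surface mutants as analytes, 1:1 model fitted, double-referenced sensograms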
For orientation: SPR reads the build-up and loss of mass on a sensor chip optically.

The target of one experiment is T1, human C2 D282A (human, UniProt P06681 21-752).
T1 sequence: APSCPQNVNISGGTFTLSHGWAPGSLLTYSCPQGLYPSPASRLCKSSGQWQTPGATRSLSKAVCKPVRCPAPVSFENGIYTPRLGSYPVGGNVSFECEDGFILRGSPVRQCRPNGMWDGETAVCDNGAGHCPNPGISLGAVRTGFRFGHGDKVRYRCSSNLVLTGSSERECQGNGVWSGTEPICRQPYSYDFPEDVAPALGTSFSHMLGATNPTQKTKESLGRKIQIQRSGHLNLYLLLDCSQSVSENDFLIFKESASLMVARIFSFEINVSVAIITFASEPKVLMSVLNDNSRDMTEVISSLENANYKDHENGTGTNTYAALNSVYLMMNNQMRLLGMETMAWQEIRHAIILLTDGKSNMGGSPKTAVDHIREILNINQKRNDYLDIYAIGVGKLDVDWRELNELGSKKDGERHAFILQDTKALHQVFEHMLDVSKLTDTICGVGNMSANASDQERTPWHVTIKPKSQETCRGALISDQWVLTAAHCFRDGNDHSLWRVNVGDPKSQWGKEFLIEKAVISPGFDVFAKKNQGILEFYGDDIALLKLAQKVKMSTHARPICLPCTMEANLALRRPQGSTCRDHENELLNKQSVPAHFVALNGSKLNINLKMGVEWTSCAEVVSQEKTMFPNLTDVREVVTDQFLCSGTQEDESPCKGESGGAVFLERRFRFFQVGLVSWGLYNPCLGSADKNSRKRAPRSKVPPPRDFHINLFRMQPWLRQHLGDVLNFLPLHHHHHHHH

In another experiment the target is T2, human C2 A436S (human, UniProt P06681 21-752).
T2 sequence: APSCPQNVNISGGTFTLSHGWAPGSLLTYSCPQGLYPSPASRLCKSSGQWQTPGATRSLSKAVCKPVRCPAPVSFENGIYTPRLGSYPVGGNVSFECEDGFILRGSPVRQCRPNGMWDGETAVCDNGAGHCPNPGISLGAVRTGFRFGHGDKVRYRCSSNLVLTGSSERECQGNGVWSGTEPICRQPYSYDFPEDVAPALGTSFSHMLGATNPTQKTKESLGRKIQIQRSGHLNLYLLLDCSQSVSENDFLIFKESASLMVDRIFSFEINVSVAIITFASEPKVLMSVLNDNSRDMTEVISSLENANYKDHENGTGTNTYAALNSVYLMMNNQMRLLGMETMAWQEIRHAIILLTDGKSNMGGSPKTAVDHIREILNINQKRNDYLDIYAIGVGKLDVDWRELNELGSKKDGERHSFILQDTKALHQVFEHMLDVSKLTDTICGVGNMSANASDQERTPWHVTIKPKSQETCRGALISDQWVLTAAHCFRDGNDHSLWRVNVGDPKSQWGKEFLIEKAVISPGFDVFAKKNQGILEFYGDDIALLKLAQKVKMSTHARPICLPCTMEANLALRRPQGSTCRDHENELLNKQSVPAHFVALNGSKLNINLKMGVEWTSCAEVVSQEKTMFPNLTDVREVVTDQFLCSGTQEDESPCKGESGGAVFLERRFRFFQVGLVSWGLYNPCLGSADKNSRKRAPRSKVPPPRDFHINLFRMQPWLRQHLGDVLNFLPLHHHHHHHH

The target of the next experiment is T3, human C2 A444S (human, UniProt P06681 21-752).
T3 sequence: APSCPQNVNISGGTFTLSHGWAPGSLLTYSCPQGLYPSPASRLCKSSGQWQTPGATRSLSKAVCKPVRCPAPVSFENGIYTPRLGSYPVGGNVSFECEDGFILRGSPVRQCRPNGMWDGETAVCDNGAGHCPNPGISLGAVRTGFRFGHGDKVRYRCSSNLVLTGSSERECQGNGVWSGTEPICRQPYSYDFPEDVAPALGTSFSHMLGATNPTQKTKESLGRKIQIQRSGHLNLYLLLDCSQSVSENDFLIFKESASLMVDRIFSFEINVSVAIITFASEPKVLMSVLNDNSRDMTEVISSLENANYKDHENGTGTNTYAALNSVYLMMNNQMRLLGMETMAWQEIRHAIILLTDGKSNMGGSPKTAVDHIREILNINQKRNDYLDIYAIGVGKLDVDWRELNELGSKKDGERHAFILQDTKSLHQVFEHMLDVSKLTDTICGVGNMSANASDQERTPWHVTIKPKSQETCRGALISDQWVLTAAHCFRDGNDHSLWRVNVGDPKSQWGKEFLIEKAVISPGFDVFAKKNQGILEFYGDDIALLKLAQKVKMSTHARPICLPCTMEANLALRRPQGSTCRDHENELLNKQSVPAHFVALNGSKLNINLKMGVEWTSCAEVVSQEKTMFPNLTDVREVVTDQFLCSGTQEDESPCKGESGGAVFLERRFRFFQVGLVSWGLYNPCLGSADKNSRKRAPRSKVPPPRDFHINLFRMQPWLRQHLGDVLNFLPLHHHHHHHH

The next experiment has as its target T4, human C2 V448A (human, UniProt P06681 21-752).
T4 sequence: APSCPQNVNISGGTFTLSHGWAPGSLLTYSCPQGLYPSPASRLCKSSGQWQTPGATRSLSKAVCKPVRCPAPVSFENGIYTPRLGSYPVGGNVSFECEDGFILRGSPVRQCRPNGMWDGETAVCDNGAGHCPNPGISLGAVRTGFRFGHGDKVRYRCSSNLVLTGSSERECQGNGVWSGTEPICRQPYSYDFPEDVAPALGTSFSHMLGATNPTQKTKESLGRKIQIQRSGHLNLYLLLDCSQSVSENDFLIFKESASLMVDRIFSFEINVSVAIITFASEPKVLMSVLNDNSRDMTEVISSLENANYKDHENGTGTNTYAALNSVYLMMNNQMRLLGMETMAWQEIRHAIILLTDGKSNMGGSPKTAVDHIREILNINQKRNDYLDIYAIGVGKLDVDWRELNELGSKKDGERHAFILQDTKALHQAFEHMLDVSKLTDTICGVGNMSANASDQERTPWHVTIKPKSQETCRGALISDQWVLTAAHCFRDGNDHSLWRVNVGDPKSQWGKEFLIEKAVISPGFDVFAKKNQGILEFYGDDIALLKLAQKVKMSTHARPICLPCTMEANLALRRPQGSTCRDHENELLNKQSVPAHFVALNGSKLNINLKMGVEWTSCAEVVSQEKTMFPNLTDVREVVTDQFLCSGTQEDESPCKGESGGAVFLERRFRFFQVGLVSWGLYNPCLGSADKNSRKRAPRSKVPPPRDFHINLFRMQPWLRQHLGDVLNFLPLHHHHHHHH

B1: RF16-226 (antibody, human IgG4 S228P, lambda)
heavy: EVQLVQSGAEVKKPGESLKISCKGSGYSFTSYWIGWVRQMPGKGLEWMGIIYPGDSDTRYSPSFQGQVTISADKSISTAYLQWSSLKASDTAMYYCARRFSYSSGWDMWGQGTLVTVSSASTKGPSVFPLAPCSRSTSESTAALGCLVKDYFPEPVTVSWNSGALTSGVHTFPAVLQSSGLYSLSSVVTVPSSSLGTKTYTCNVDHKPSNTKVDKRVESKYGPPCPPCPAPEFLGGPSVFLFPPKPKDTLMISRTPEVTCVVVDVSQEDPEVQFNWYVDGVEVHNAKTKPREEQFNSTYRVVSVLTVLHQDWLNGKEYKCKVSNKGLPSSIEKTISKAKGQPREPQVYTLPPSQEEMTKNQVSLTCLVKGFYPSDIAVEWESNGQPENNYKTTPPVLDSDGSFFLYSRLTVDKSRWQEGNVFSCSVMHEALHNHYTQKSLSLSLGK
light: SYELTQPPSVSVSPGQTARITCSGDALTSKYVAWYQQKSGLAPLLVIYEDTRRPSGIPAKFSGSSSGSVATLTISGAHGDDEADYYCYSTDASGHQRVFGGGTKLTVLSQPKAAPSVTLFPPSSEELQANKATLVCLISDFYPGAVTVAWKADGSPVKAGVETTKPSKQSNNKYAASSYLSLTPEQWKSHRSYSCQVTHEGSTVEKTVAPTECS
notes: pH-dependent anti-C2 antibody from a phage display library; also called WT
For the molecule B1, the Fold diff with human C2 D282A was found to be 1 fold; with human C2 A436S, 1 fold; with human C2 A444S, 2 fold; with human C2 V448A, 0 fold.

Source of the values: patent publication US20220332804A1 (CSL INNOVATION, published 2022).
